Non-standard residues stand in square brackets, D forms with d. Primed or numbered codes have the meaning given here. No end group written: not given here. *: point of attachment. GuAmb = 4-guanidinomethylbenzoyl, N=C(N)NCc1ccc(C(=O)*)cc1; Arg(Et)′ = arginine carrying an ethyl group; Phe(4-F) = N[C@@H](Cc1ccc(F)cc1)C(=O)O; Cyclohexanecarbonyl = O=C(C1CCCCC1)*; Arg(Me) = CNC(=N)NCCC[C@H](N)C(=O)O; 4Pal = N[C@@H](Cc1ccncc1)C(=O)O; d3Pal = N[C@H](Cc1cccnc1)C(=O)O; d4Pal = N[C@H](Cc1ccncc1)C(=O)O; Cha = N[C@@H](CC1CCCCC1)C(=O)O; amidino = N=C(N)*; azaGly = NNC(=O)O
B1: [D-Ala1,AzaGly7,Arg(Me)9]MS10 (peptide)
peptide: [dA]NWNSF[azaGly]L[Arg(Me)]F-NH2
modifications: N-terminus assumed
SMILES: CNC(=N)NCCC[C@H](NC(=O)[C@H](CC(C)C)NC(=O)NNC(=O)[C@H](Cc1ccccc1)NC(=O)[C@H](CO)NC(=O)[C@H](CC(N)=O)NC(=O)[C@H](Cc1c[nH]c2ccccc12)NC(=O)[C@H](CC(N)=O)NC(=O)[C@@H](C)N)C(=O)N[C@@H](Cc1ccccc1)C(N)=O
notes: also called Compound No. 259
B2: [D-Tyr1,D-Asn2,Thr3,AzaGly7,Arg(Me)9,Phe(4F)10]MS10 (peptide)
peptide: [dY][dN]TNSF[azaGly]L[Arg(Me)][Phe(4-F)]-NH2
modifications: N-terminus assumed
SMILES: CNC(=N)NCCC[C@H](NC(=O)[C@H](CC(C)C)NC(=O)NNC(=O)[C@H](Cc1ccccc1)NC(=O)[C@H](CO)NC(=O)[C@H](CC(N)=O)NC(=O)[C@@H](NC(=O)[C@@H](CC(N)=O)NC(=O)[C@H](N)Cc1ccc(O)cc1)[C@@H](C)O)C(=O)N[C@@H](Cc1ccc(F)cc1)C(N)=O
notes: also called Compound No. 316
B3: [D-Tyr1,D-His2,AzaGly7,Arg(Me)9]MS10 (peptide)
peptide: [dY][dH]WNSF[azaGly]L[Arg(Me)]F-NH2
modifications: N-terminus assumed
SMILES: CNC(=N)NCCC[C@H](NC(=O)[C@H](CC(C)C)NC(=O)NNC(=O)[C@H](Cc1ccccc1)NC(=O)[C@H](CO)NC(=O)[C@H](CC(N)=O)NC(=O)[C@H](Cc1c[nH]c2ccccc12)NC(=O)[C@@H](Cc1c[nH]cn1)NC(=O)[C@H](N)Cc1ccc(O)cc1)C(=O)N[C@@H](Cc1ccccc1)C(N)=O
notes: also called Compound No. 288
B4: [D-Tyr1,D-Ser2,AzaGly7,Arg(Me)9]MS10 (peptide)
peptide: [dY][dS]WNSF[azaGly]L[Arg(Me)]F-NH2
modifications: N-terminus assumed
SMILES: CNC(=N)NCCC[C@H](NC(=O)[C@H](CC(C)C)NC(=O)NNC(=O)[C@H](Cc1ccccc1)NC(=O)[C@H](CO)NC(=O)[C@H](CC(N)=O)NC(=O)[C@H](Cc1c[nH]c2ccccc12)NC(=O)[C@@H](CO)NC(=O)[C@H](N)Cc1ccc(O)cc1)C(=O)N[C@@H](Cc1ccccc1)C(N)=O
notes: also called Compound No. 287
B5: des(1)-[D-Pya(3)2,Phe3,AzaGly7,Arg(Me)9]MS10 (peptide)
peptide: [d3Pal]FNSF[azaGly]L[Arg(Me)]F-NH2
modifications: N-terminus assumed
SMILES: CNC(=N)NCCC[C@H](NC(=O)[C@H](CC(C)C)NC(=O)NNC(=O)[C@H](Cc1ccccc1)NC(=O)[C@H](CO)NC(=O)[C@H](CC(N)=O)NC(=O)[C@H](Cc1ccccc1)NC(=O)[C@H](N)Cc1cccnc1)C(=O)N[C@@H](Cc1ccccc1)C(N)=O
notes: also called Compound No. 256
B6: des(1)-[D-Pya(3)2,AzaGly7,Arg(Me)9]MS10 (peptide)
peptide: [d3Pal]WNSF[azaGly]L[Arg(Me)]F-NH2
notes: also called Compound No. 289; [D-Pya(3)2,AzaGly7,Arg(Me)9]MS10-(2-10)
B7: [D-Pya(3)1,AzaGly7,Arg(Me)9]MS10 (peptide)
peptide: [d3Pal]NWNSF[azaGly]L[Arg(Me)]F-NH2
modifications: N-terminus assumed
SMILES: CNC(=N)NCCC[C@H](NC(=O)[C@H](CC(C)C)NC(=O)NNC(=O)[C@H](Cc1ccccc1)NC(=O)[C@H](CO)NC(=O)[C@H](CC(N)=O)NC(=O)[C@H](Cc1c[nH]c2ccccc12)NC(=O)[C@H](CC(N)=O)NC(=O)[C@H](N)Cc1cccnc1)C(=O)N[C@@H](Cc1ccccc1)C(N)=O
notes: also called Compound No. 258
B8: Endo-Phe5a-[D-Tyr1,Phe3,AzaGly7,Arg(Me)9]MS10 (peptide)
peptide: [dY]NFNSFF[azaGly]L[Arg(Me)]F-NH2
modifications: N-terminus assumed
SMILES: CNC(=N)NCCC[C@H](NC(=O)[C@H](CC(C)C)NC(=O)NNC(=O)[C@H](Cc1ccccc1)NC(=O)[C@H](Cc1ccccc1)NC(=O)[C@H](CO)NC(=O)[C@H](CC(N)=O)NC(=O)[C@H](Cc1ccccc1)NC(=O)[C@H](CC(N)=O)NC(=O)[C@H](N)Cc1ccc(O)cc1)C(=O)N[C@@H](Cc1ccccc1)C(N)=O
notes: printed in three-letter code: D-Tyr-Asn-Phe-Asn-Ser-Phe-Phe-AzaGly-Leu-Arg(Me)-Phe-NH2; also called Compound No. 270
B9: des(1-2)-[AzaGly7,Arg(Me)9]MS10 (peptide)
peptide: WNSF[azaGly]LR(Me)F-NH2
modifications: N-terminus assumed
SMILES: CNC(=N)NCCC[C@H](NC(=O)[C@H](CC(C)C)NC(=O)NNC(=O)[C@H](Cc1ccccc1)NC(=O)[C@H](CO)NC(=O)[C@H](CC(N)=O)NC(=O)[C@@H](N)Cc1c[nH]c2ccccc12)C(=O)N[C@@H](Cc1ccccc1)C(N)=O
notes: also called Compound No. 271
B10: des(1-2)-Acetyl-[AzaGly7,Arg(Me)9]MS10 (peptide)
peptide: Ac-WNSF[azaGly]L[Arg(Me)]F-NH2
SMILES: CNC(=N)NCCC[C@H](NC(=O)[C@H](CC(C)C)NC(=O)NNC(=O)[C@H](Cc1ccccc1)NC(=O)[C@H](CO)NC(=O)[C@H](CC(N)=O)NC(=O)[C@H](Cc1c[nH]c2ccccc12)NC(C)=O)C(=O)N[C@@H](Cc1ccccc1)C(N)=O
notes: also called Compound No. 272
B11: des(1-2)-Amidino-[AzaGly7,Arg(Me)9]MS10 (peptide)
peptide: amidino-WNSF[azaGly]L[Arg(Me)]F-NH2
SMILES: CNC(=N)NCCC[C@H](NC(=O)[C@H](CC(C)C)NC(=O)NNC(=O)[C@H](Cc1ccccc1)NC(=O)[C@H](CO)NC(=O)[C@H](CC(N)=O)NC(=O)[C@H](Cc1c[nH]c2ccccc12)NC(=N)N)C(=O)N[C@@H](Cc1ccccc1)C(N)=O
notes: also called Compound No. 273
B12: des(1-2)-Acetyl-[Ala3,AzaGly7,Arg(Me)9]MS10 (peptide)
peptide: Ac-ANSF[azaGly]L[Arg(Me)]F-NH2
SMILES: CNC(=N)NCCC[C@H](NC(=O)[C@H](CC(C)C)NC(=O)NNC(=O)[C@H](Cc1ccccc1)NC(=O)[C@H](CO)NC(=O)[C@H](CC(N)=O)NC(=O)[C@H](C)NC(C)=O)C(=O)N[C@@H](Cc1ccccc1)C(N)=O
B13: [D-Pya(3)1,D-Asn2,Cha3,AzaGly7,Arg(Me)9]MS10 (peptide)
peptide: [d3Pal][dN][Cha]NSF[azaGly]L[Arg(Me)]F-NH2
modifications: N-terminus assumed
SMILES: CNC(=N)NCCC[C@H](NC(=O)[C@H](CC(C)C)NC(=O)NNC(=O)[C@H](Cc1ccccc1)NC(=O)[C@H](CO)NC(=O)[C@H](CC(N)=O)NC(=O)[C@H](CC1CCCCC1)NC(=O)[C@@H](CC(N)=O)NC(=O)[C@H](N)Cc1cccnc1)C(=O)N[C@@H](Cc1ccccc1)C(N)=O
notes: also called Compound No. 290
B14: [D-Pya(3)1,D-Tyr2,Cha3,AzaGly7,Arg(Me)9]MS10 (peptide)
peptide: [d3Pal][dY][Cha]NSF[azaGly]L[Arg(Me)]F-NH2
modifications: N-terminus assumed
SMILES: CNC(=N)NCCC[C@H](NC(=O)[C@H](CC(C)C)NC(=O)NNC(=O)[C@H](Cc1ccccc1)NC(=O)[C@H](CO)NC(=O)[C@H](CC(N)=O)NC(=O)[C@H](CC1CCCCC1)NC(=O)[C@@H](Cc1ccc(O)cc1)NC(=O)[C@H](N)Cc1cccnc1)C(=O)N[C@@H](Cc1ccccc1)C(N)=O
notes: also called Compound No. 291

Molecular target: T1, human OT7T175 (metastin receptor) (human, UniProt Q969F8 1-398)
T1 sequence (Q969F8 whole entry L364H): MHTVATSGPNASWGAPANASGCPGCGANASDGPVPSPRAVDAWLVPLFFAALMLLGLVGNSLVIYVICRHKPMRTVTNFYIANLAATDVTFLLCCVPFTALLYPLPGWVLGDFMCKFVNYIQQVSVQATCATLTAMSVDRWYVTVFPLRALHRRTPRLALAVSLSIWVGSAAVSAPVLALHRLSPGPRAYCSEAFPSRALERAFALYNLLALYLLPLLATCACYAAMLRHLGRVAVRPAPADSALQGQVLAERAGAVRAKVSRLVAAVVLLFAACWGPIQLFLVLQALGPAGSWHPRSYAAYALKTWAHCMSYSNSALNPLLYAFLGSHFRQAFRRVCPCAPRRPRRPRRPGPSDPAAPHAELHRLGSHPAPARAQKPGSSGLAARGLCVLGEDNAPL
Assay: cell-based or functional assay

Binder | Ca ion level-increasing activity (FLIPR)
B1 | 1 x Metastin (1-54)
[dY][dN]FNSF[azaGly]L[Arg(Me)]F-NH2 (also called Compound No. 257) [[D-Tyr1,D-Asn2,Phe3,AzaGly7,Arg(Me)9]MS10] | 3 x Metastin (1-54)
B2 | 1 x Metastin (1-54)
[dY][dN]TNSF[azaGly]L[Arg(Me)]F-NH2 (also called Compound No. 284) [[D-Tyr1,D-Asn2,Thr3,AzaGly7,Arg(Me)9]MS10] | 1 x Metastin (1-54)
B3 | 1 x Metastin (1-54)
B4 | 2 x Metastin (1-54)
B5 | 1 x Metastin (1-54)
B6 | 1 x Metastin (1-54)
B7 | 2 x Metastin (1-54)
{4‑(3-indolyl)butyryl}-NSF[azaGly]L[Arg(Me)]F-NH2 (also called Compound No. 267) [des(1-3)-4-(3-Indolyl)butyryl-[AzaGly7,Arg(Me)9]MS10] | 2 x Metastin (1-54)
B8 | 1 x Metastin (1-54)
B9 | 1 x Metastin (1-54)
B10 | 2 x Metastin (1-54)
B11 | 5 x Metastin (1-54)
B12 | 1 x Metastin (1-54)
{n‑hexanoyl}-NSF[azaGly]L[Arg(Me)]F-NH2 (also called Compound No. 277) [des(1-3)-n-Hexanoyl-[AzaGly7,Arg(Me)9]MS10] | 2 x Metastin (1-54)
Cyclohexanecarbonyl-NSF[azaGly]L[Arg(Me)]F-NH2 (also called Compound No. 278) [des(1-3)-Cyclohexanecarbonyl-[AzaGly7,Arg(Me)9]MS10] | 2 x Metastin (1-54)
YNWNSXGLRF (D-Tyr1; Pya(2)6; Arg(Me)9; C-terminal amide, also called Compound No. 281) [[D-Tyr1,Pya(2)6,Arg(Me)9]MS10] | 0.5 x Metastin (1-54)
B13 | 1 x Metastin (1-54)
B14 | 2 x Metastin (1-54)
[dY]N[d4Pal]NSF[azaGly]L[Arg(Me)]F-NH2 (also called Compound No. 302) [[D-Tyr1,D-Pya(4)3,AzaGly7,Arg(Me)9]MS10] | 2 x Metastin (1-54)
Y[dN][4Pal]NSF[azaGly]L[Arg(Me)]F-NH2 (also called Compound No. 304) [[D-Asn2,Pya(4)3,AzaGly7,Arg(Me)9]MS10] | 3 x Metastin (1-54)
[dN][Cha]NSF[azaGly]L[Arg(Me)]F-NH2 [des(1)-[D-Asn2,Cha3,AzaGly7,Arg(Me)9]MS10] | 1 x Metastin (1-54)
GuAmb-F[azaGly]L[Arg(Me)]W-NH2 [des(1-5)-GuAmb-[AzaGly7,Arg(Me)9,Trp10]MS10] | 5 x Metastin (1-54)

Molecular target: T1, human OT7T175 (metastin receptor)
Assay: competition with Cy-5 metastin (40-54) on hOT7T175-CHO cells, FMAT
Protocol: hOT7T175-Expressed CHO cells were cultured in MEM-α medium (nucleic acid-free) containing 10% dialyzed serum. The medium was removed and the adhered cells were washed with PBS. Then, PBS containing 5 mM EDTA was added and the cells were scraped from a flask with a cell scraper.
To each well of a 96-Well Black Clear Bottom Microplate (Applied Biosystems, Inc.), 10 μL of assay buffer containing 1% dimethylsulfoxide was added to examine total binding, 10 μL of 10 μM non-labeled peptide (having the same amino acid sequence as that of labeled one) solution diluted with assay buffer to examine non-specific binding, and 10 μL of a test compound diluted with assay buffer to examine a binding inhibition activity of the test compound, and furthermore, 90 μL each of the cell suspension was dispensed to each well. […] Specific binding is calculated as non-specific binding subtracted from total binding. The binding inhibition activity of a test compound is shown by a ratio of the value obtained by subtracting a measured value in presence of a test compound from the total binding to the specific binding.

Binder | IC50
B1 | 250 nM
[dY][dN]FNSF[azaGly]L[Arg(Me)]F-NH2 (also called Compound No. 257) [[D-Tyr1,D-Asn2,Phe3,AzaGly7,Arg(Me)9]MS10] | 40 nM
B2 | 26 nM
[dY][dN]TNSF[azaGly]L[Arg(Me)]F-NH2 (also called Compound No. 284) [[D-Tyr1,D-Asn2,Thr3,AzaGly7,Arg(Me)9]MS10] | 34 nM
B3 | 0.072 nM
B4 | 2.3 nM
B5 | 22 nM
B6 | 8.4 nM
B7 | 90 nM
{4‑(3-indolyl)butyryl}-NSF[azaGly]L[Arg(Me)]F-NH2 (also called Compound No. 267) [des(1-3)-4-(3-Indolyl)butyryl-[AzaGly7,Arg(Me)9]MS10] | 360 nM
B8 | 15 nM
B9 | 120 nM
B10 | 540 nM
B11 | 300 nM
{n‑hexanoyl}-NSF[azaGly]L[Arg(Me)]F-NH2 (also called Compound No. 277) [des(1-3)-n-Hexanoyl-[AzaGly7,Arg(Me)9]MS10] | 54 nM
Cyclohexanecarbonyl-NSF[azaGly]L[Arg(Me)]F-NH2 (also called Compound No. 278) [des(1-3)-Cyclohexanecarbonyl-[AzaGly7,Arg(Me)9]MS10] | 110 nM
YNWNSXGLRF (D-Tyr1; Pya(2)6; Arg(Me)9; C-terminal amide, also called Compound No. 281) [[D-Tyr1,Pya(2)6,Arg(Me)9]MS10] | 230 nM
B13 | 1.4 nM
B14 | 0.41 nM
[dY]N[d4Pal]NSF[azaGly]L[Arg(Me)]F-NH2 (also called Compound No. 302) [[D-Tyr1,D-Pya(4)3,AzaGly7,Arg(Me)9]MS10] | 7.7 nM
Y[dN][4Pal]NSF[azaGly]L[Arg(Me)]F-NH2 (also called Compound No. 304) [[D-Asn2,Pya(4)3,AzaGly7,Arg(Me)9]MS10] | 5 nM
YNWNSFGL[Arg(Et)′]F-NH2 (also called Compound No. 220) [[Arg(Et)9]MS10] | 330 nM
